The target of experiment [1] is GST–KLHL3^290–587 R528H (Homo sapiens, UniProt Q9UH77, R528H). In kind it is binding.
Experiment [2] has as its target T1, GST–KLHL3^290–587 R528H (human, UniProt Q9UH77-1 290-587, R528H).
T1 construct: KLHL3, human, NM_017415.2, Kelch domain, residues 290-587, with the Gordon's syndrome mutation R528H; Mutation found in patients with Gordon's syndrome; also called KLHL3 R528H; source: E. coli BL21, purified (glutathione–Sepharose); not shown: GST, N-terminal, kept
T1 sequence (looked up): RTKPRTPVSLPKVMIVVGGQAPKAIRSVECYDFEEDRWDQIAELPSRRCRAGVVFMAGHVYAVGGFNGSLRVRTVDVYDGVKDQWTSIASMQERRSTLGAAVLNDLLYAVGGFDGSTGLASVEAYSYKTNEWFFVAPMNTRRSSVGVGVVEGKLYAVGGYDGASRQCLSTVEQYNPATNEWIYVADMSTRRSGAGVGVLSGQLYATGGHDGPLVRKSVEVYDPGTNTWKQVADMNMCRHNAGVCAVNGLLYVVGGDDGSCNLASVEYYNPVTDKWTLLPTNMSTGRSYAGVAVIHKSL
Put plainly: fluorescence polarisation; Kelch protein titrated against 10 nM Lumio-Green-labelled peptide; 25°C; 50 mM Tris/HCl pH 7.5, 150 mM NaCl, 2 mM DTT; one-site specific binding with Hill slope; duplicates, at least 12 points per curve. Conditions: both partners purified. On the technique in general: Fluorescence polarisation rises when a labelled molecule tumbles more slowly, as on binding a larger partner.

Experiment [3] has as its target T2, KLHL3 full-length protein (residues 1–587) (human, UniProt Q9UH77-1 1-587).
T2 construct: Kelch-like protein 3 (KLHL3), human, NM_017415.2, residues 1-587; also called Kelch-like protein 3; source: Sf21 cells, expressed and purified as a DAC-(TEV protease)KLHL3 fusion protein
T2 sequence (looked up): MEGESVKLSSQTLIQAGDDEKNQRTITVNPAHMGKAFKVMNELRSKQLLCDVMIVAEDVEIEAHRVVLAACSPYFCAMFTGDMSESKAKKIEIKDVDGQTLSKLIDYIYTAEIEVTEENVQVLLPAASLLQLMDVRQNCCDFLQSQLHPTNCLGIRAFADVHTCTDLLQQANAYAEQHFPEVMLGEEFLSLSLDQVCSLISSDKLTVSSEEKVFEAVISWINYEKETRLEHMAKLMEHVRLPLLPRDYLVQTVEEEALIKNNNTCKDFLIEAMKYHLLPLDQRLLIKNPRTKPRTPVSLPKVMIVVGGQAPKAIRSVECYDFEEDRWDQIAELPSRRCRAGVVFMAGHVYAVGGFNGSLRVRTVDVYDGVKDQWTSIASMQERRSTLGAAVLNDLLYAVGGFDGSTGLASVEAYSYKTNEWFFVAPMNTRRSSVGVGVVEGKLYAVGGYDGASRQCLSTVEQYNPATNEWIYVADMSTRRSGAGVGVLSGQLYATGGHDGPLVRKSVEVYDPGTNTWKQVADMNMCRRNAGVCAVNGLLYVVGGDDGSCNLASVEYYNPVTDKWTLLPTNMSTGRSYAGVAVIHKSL
The experiment is described as above. Conditions: both partners purified.

The next experiment addresses T3, GST–KLHL3^290–587 N529K (human, UniProt Q9UH77-1 290-587, N529K).
T3 construct: KLHL3, human, NM_017415.2, Kelch domain, residues 290-587, with the Gordon's syndrome mutation N529K; Mutation found in patients with Gordon's syndrome; also called KLHL3 N529K; source: E. coli BL21, purified (glutathione–Sepharose); not shown: GST, N-terminal, kept
T3 sequence (looked up): T1 sequence (looked up) with H239R, N240K
The experiment is described as above. Particulars: both partners purified.

Positions count from the first letter of the chain named. Ends that are not written are not given here. Peptide text beside a SMILES is read from it. * marks the point of attachment. X1 = N[C@H]1CS[As]2SC[C@H](NC1=O)C(=O)N1CCC[C@H]1C(=O)NCC(=O)N[C@H]1CS[As](SC[C@@H](C(=O)*)NC1=O)c1c(O)ccc3c1Oc1c(ccc(O)c12)C31OC(=O)c2ccccc21

`CC(C)[C@H](NC(=O)[C@H](CO)NC(=O)[C@@H]1CCCN1C(=O)[C@@H]1CCCN1C(=O)CNC(=O)CNC(=O)CNC(=O)CNC(=O)CNC(=O)[C@@H]1CS[As]2SC[C@H](NC(=O)CNC(=O)[C@@H]3CCCN3C(=O)[C@@H]3CS[As](SC[C@H](N)C(=O)N3)c3c(O)ccc4c3Oc3c(ccc(O)c32)C42OC(=O)c3ccccc32)C(=O)N1)C(=O)N[C@@H](Cc1ccccc1)C(=O)N1CCC[C@H]1C(=O)N1CCC[C@H]1C(=O)N[C@@H](CCC(=O)O)C(=O)N1CCC[C@H]1C(=O)N[C@@H](CCC(=O)O)C(=O)N[C@@H](CCC(=O)O)C(=O)N1CCC[C@H]1C(=O)N[C@@H](CCC(=O)O)C(=O)N[C@@H](C)C(=O)N[C@@H](CC(=O)O)C(=O)N[C@@H](CCC(N)=O)C(=O)N[C@@H](Cc1cnc[nH]1)C(=O)N[C@@H](CCC(N)=O)C(=O)O` (stereo partly shown) [WNK4 WT 549–567] (X1-GGGGGPPSVFPPEPEEPEADQHQ-OH): the “reduction of binding relative to wild-type KLHL3” value at GST–KLHL3^290–587 R528H [1] is reported as “approximately 10 fold”.

B1: 19-residue WNK4 degron peptide (WNK4 WT 549–567) (peptide)
peptide: GPPSVFPPEPEEPEADQHQ
modifications: not fully specified (N-terminus); also: Lumio Green fluorophore on N-terminal linker CCPGCCGGGG
notes: WNK4 acidic degron, residues 549-567; also called WNK4 19-residue peptide; source: synthetic peptide (GL Biochem)
Take B1: the Kd (commonly the free concentration of one partner at which half of the binding sites on the other are occupied at equilibrium, for simple one-to-one binding) with GST–KLHL3^290–587 R528H [2] worked out at 1930 nM; in experiment [3], 620 nM; in the experiment with GST–KLHL3^290–587 N529K it was 6600 nM.

Values taken from article PMC4019986, “Structural and biochemical characterization of the KLHL3–WNK kinase interaction important in blood pressure regulation” (Biochemical Journal, 2014).
